Positions count from the first letter of the chain named.
B1: 83-1110B (antibody, IgG2b, V domains shown)
VH: EVQLQQSGPEFVRPGTSVKFSCKVSGGSITSYFIHFVKQRPGQGLEWIGKIDPEDDSTKYGEKFKNKATLTADTSSNTAFLKLSSLTSEDTAIYFCTTLTGLDYWGQGVMVTVSS
VL: DIQMTQSPPVLSAAVGDRVTLSCKASRSLNKNLDWYQQKHGETPKLLIYHTHNLQTGIPSRFSGSGSDTDYTLTISSLQTEDVATYYCYQYHSGWTFGGGTRLELRR
B2: 84-1111F (antibody, IgG2b, V domains shown)
VH: EVQVVESGGGLVQPGRSMKLSCAALGFTFRDYYMAWVRQTPTKGLEWVAAISTGGGNTYYRDSVKGRFTISRDNAKSTLYLKMDSLRSDDTATYYCARNPYGNYFDYWGQGVMVTVSS
VL: QFVLSQPNSVSTNLGSTVKLSCKRSTGNIGSNYVHWYQRHEGRSPTTMIYRDDKRPNGVPDRFSGSIDRSSNSALLTINNVQTEDEADYFCQSYSGGMYLFGGGTTLTVL
B3: 89-1207D (antibody, IgG2b, V domains shown)
VH: EVQLVGSGGGLVQPGRSMKLSCEASGFTFSNHYMAWVRQAPTKGLEWVATISTGGGNTYYRDSVKGRFTISRDNARSILSLQMDSLRSEDTATYYCARQDYSNYMGGFAYWGQGTLVTVSS
VL: QFVLTQPNSVSTNLGSTVKLSCTRSIGNIGNNYVNWYKQYEGRSPTTMIYRDDERPDGVPDRFSGSIDRSSNSALLTINNVQTEDEADYFCQSFSSGMFIFGGGTKLTVL
B4: 37-0511F (antibody, IgG2b, V domains shown)
VH: EVHLQQSGAALVRPRASVKLSCKVSGDSISRYYVHFVKQRPGQGLEWIGRIDPEDDTTKYSEKFKNRATLTADASSDTASLILSGLTSDDTATYFCSTLTGLDYWGQGVMVTVSS
VL: DIQMTQSPPVLSTSVGDRVTLRCKPSQNVHSKLDWYQQKHGEAPKLLIYYTHNLQTGIPSRFSGSGSGTDYTLTISSLQPEDVATYYCFQYYSGWTFGGGTKLEMKR
B5: 94-1311E (antibody, V domains shown)
VH: EVQLQQSGAGLVRPRTSVRLSCKISGDSITAYYVHFVKQRPGQGLEWIGRIDPEDDSTKYSEKFKNKATLTADVSSSTAYLILSSLTSDDSATYFCSTLTGLDYWGQGVMVTVSS
VL: B4 VL with T13A, R22S, P25A, N28S, S31N, T69S, Q79R, P80A
B6: 53-0707E (antibody, IgG2b, V domains shown)
VH: B4 VH with H3Q, A10E, A16T, S30T, N66K, R67K, D77N, S80Y, L83F, D89E
VL: B4 VL with P25A
B7: 80-1104A (antibody, IgG2b, V domains shown)
VH: EVQLVETGGGLVQPGSSLKLSCSTSGFTFSETWMSWVRQAPGKGLEWVGLIKDKNSNYEANYAESVKGRFTISRDDSKRRVYLQMYTLRDQDTATYYCTSHEDFYYYSSYYFDYWGQGVMVTVSS
VL: DIVLTQSPATLSVTPGESVSLSCRASQGISTSIHWYQQKSNESPRLLIKYASQSMSGIPSRFSGSGSGTDFTLRINRVESEDFSVYYCQQSYNLPLTFGSGTKLEIKR
B8: 96-1403F (antibody, IgG2b, V domains shown)
VH: B7 VH with Q13R, S23A, E31D, G49A, Y58S, V66I, R79S, Y86N, S100R, S109G
VL: B7 VL with A9P, K39R, M55I, S56A, T72I, R74S, S91T, N93S, S100P, I106V
B9: 93-1310F (antibody, IgG2b, V domains shown)
VH: B7 VH with S23A, E31D, G49A, Y86F, Q117H
VL: B7 VL with E42G, M55I, S91T, N93S, K103R

Target: T1, mouse SPNS2 (mouse, UniProt Q91VM4 1-549)
T1 sequence: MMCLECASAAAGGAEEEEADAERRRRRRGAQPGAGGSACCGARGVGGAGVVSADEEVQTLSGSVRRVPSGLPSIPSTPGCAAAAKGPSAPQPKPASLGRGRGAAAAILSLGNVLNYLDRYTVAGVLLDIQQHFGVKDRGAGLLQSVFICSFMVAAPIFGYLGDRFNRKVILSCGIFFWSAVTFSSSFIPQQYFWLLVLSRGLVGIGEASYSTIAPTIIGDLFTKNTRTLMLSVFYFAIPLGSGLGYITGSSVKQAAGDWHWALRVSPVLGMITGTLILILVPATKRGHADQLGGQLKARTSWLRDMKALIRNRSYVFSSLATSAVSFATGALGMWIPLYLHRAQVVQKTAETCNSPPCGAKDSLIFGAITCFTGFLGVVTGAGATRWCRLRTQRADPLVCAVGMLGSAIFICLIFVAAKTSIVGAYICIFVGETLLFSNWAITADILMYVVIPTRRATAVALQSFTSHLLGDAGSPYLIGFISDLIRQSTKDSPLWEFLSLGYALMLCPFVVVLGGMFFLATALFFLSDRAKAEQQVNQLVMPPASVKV
Test: cell-based or functional assay

| Binder | pIC50, S1P transport inhibition (LC-MS/MS of S1P) |
| --- | --- |
| B1 | 8.1 pIC50 (M) |
| B2 | 8.3 pIC50 (M) |
| B3 | 7.8 pIC50 (M) |
| B4 | 7.8 pIC50 (M) |
| B5 | 8.2 pIC50 (M) |
| B6 | 7.6 pIC50 (M) |
| B7 | 8 pIC50 (M) |
| B8 | 7.7 pIC50 (M) |
| B9 | 8.2 pIC50 (M) |

Target: T2, human SPNS2 W259A mutant (human, UniProt Q8IVW8 1-549)
T2 sequence: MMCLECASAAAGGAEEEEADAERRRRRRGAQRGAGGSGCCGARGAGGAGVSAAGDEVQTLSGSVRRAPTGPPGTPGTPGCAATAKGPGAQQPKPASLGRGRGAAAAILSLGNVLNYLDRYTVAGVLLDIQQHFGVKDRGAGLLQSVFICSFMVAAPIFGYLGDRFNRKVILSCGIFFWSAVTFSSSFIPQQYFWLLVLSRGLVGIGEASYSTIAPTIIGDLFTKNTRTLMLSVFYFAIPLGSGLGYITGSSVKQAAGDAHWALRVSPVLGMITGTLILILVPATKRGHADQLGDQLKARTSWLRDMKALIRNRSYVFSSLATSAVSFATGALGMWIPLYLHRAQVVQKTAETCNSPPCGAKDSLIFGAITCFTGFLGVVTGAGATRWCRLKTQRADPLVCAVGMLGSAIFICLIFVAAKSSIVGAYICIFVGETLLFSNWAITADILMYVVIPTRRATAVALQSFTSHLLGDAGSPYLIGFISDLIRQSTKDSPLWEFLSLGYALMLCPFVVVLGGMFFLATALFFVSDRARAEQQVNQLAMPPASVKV
Test: flow cytometry

| Binder | binding ratio vs native type [ratio] |
| --- | --- |
| B1 | < 0.5 |
| B4 | < 0.5 |
| B5 | < 0.5 |
| B6 | < 0.5 |

Target: T3, human SPNS2 K136A mutant (human, UniProt Q8IVW8 1-549)
T3 sequence: T2 sequence with K136A, A259W
Test: flow cytometry

| Binder | binding ratio vs native type [ratio] |
| --- | --- |
| B3 | < 0.5 |
| B7 | < 0.5 |
| B8 | < 0.5 |
| B9 | < 0.5 |

— patent publication US20210147523A1 (TEIJIN PHARMA, published 2021)
